The source of these data is patent publication US20230365703A1.

Experiment [1] has as its target GPC3 on liver cancer cells (HepG2, HuH-7) (UniProt P51654). In words: flow cytometry on HepG2 cells, Alexa Fluor 488 anti-human IgG; fit value of the flat control curve; unit inferred, unit taken from the axis Con.(nM). In general terms: A flow cytometer gives signals particle by particle.
Experiment [2] deals with CD47 on CD47-transfected CHO-K1 cells (Homo sapiens (Human)) (UniProt Q08722). In words: flow cytometry on CD47-transfected CHO-K1 cells (CD38-/CD47+), anti-human IgG-FITC detection.
Experiment [3] addresses human CD47-Fc chimeric protein (human) (UniProt Q08722). Briefly: SPR (Biacore T200), human CD47-Fc captured on anti-human IgG (Fc) CM5 chip, analyte 50 nM, bivalent analyte model. Background: Surface plasmon resonance follows binding to a sensor surface in real time, without labels.
Experiment [4] addresses IL12 receptors on H_IL12 Reporter 293 cells (UniProt P42701). In words: cell-based or functional assay.

pEC50, pKd: −log10 of the molar value.

IL12 receptors on H_IL12 Reporter 293 cells, sequence (Q99665 24-862 limits assumed, chain 2 of 2, other chains not shown): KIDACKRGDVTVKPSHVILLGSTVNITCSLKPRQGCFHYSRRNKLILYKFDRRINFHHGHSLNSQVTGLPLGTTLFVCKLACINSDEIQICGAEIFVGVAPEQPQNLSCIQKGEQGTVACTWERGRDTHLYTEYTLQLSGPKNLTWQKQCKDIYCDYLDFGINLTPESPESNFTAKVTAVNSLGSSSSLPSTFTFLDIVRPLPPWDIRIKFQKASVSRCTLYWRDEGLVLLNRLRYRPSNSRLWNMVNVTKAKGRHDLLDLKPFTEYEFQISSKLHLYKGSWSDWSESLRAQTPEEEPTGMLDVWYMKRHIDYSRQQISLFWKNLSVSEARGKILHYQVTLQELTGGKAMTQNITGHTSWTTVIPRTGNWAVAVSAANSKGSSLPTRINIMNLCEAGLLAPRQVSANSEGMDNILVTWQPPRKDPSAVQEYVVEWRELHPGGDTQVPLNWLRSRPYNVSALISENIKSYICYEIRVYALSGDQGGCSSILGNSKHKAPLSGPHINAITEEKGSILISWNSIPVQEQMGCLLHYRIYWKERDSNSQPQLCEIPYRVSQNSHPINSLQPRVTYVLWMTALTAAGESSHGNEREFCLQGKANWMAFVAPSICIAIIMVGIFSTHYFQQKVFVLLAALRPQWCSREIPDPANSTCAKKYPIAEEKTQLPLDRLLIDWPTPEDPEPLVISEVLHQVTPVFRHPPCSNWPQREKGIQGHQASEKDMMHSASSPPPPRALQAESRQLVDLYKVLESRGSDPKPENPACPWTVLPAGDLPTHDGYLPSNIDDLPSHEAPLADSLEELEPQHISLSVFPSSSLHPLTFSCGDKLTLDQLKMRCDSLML

Consider “Human IgG1 homotype control (Isotype) (antibody)”, for which, in experiment [1], the pEC50 is 8.47.

TTI-621 (Fc fusion) displayed an EC50 (read off the curve) in experiment [2] of 0.8 nM. In experiment [3], this substance gave a pKd of 7.43.

For the substance “IL12A and IL12B complex (from UniProt P29459 23-219; P29460 24-328) (ligand)”, in experiment [4], the EC50 on H IL12 Reporter 293 cells (One-Glo signal; called binding affinity by the filing) stood at 0.06 nM.

By pEC50 is commonly meant the negative decadic logarithm of the EC50, by convention in mol/L. Read a low pEC50 as a large EC50. The EC50 (read off the curve) is the concentration giving half of the maximal effect. Lower therefore signals a more potent agent. A word on the pKd: it is −log10 of the Kd, conventionally taken in molar units.
